Where two headings read alike, the source gives them in different places. Residues, ends and D or L forms follow the SMILES beside them. No end group written: not given here. Where only a bound is given, the exact number is not on record here.

We go through eleven molecules from article PMC3640046, “Structural Insights into a Wildtype Domain of the Oncoprotein E6 and Its Interaction with a PDZ Domain” (PLoS ONE, 2013).

Series [1] has as its target T1, hDlgPDZ2 (Homo sapiens, UniProt Q12959).
T1 construct: host or cells: E. coli BL21 (DE3)
As to the kind of experiment: Surface plasmon resonance (SPR) of hDlgPDZ2 with E6-derived peptides. As to conditions: for kon: read-out: ka. Format: binding. As to the method: Figure 5 51Z2 derived E6CT6 peptide versus E6CT11 peptide binding to hDlgPDZ2. SPR data. A E6CT6, B E6CT11. Sensorgrams of E6CT6 and E6CT11 binding injected in triplicate (black lines) are shown overlaid with the best fit derived from a 1∶1 interaction model including a mass transport term (orange lines). Peptide concentrations of 3.125, 6.25, 12.5, 25, 50, 100 and 200 µM are shown. The binding parameters were obtained by kinetic analysis of association and dissociation phases (left panels) or by steady state analysis (right panels) utilizing signals of plateaus depicted in the corresponding left panel.
A detailed description of methods is provided in Text S1. Briefly, recombinant proteins were generated in E. coli BL21 (DE3). Cells were disrupted and protein solubility in cell-lysates was assessed. Soluble proteins were FPLC-purified and initially characterized by CD spectroscopy, dynamic light scattering, gel filtration chromatography and NMR spectroscopy. The affinity of E6-derived peptides to hDlgPDZ2 was elucidated utilizing Surface Plasmon Resonance. hDlgPDZ2 was generated by bacterial expression and FPLC purification. The generation of the labeled E6CT11 peptide was performed as previously described. The purified, monomeric 51Z2 and the purified, monomeric hDlgPDZ2 in complex with purified E6CT11 were subsequently structurally characterized by standard solution state NMR techniques.
[1H-‐15N]-‐HSQC-‐spectra

The format of series [2] is physicochemical. As to conditions: N-terminal His6-tag, E. coli BL21(DE3), 20 °C overnight expression with 10 µM Zn2+; cell extract in lysis buffer pH 7.3; centrifugation 10,000 x g, 4 °C, 30 min; Coomassie stained SDS-PAGE. The procedure: Assessment of solubility of amino-terminally His6-tagged, recombinant E6 constructs derived from the high-risk types 16, 18, 26, 31, 45, 51, 59 and 97 as well as for the non-tumorigenic cutaneous type 1a was performed after bacterial expression in presence of 10 µM of Zn^2+ as solubility of E6 constructs is dependent on low µM concentrations of zinc. None of the wild-type sequence full-length E6 constructs nor their respective N-terminal zinc-binding domain (ZBD) turned out to be soluble (Table S1). […] The soluble constructs are denoted as E6Z2 (e.g. 51Z2 stands for the second, i.e. C-terminal, ZBD of HPV 51 E6). […]

The subject of another series is hDlg. Particulars: in vitro degradation assay; cited from earlier work. The text has this: One PDZ domain containing protein targeted by E6 for degradation in vivo is the multi-domain protein hDlg (human Dlg/hDlg1/SAP-97). […] Human Dlg is part of the Scribble polarity complex that controls basolateral polarity and it is required for adherens junction formation and differentiation of epithelial cells. Human Dlg is expressed in human keratinocytes and localizes to nuclear, cytoplasmic, membrane-associate ...

In series [3] the target is T1, hDlgPDZ2. As to conditions: cited from earlier work. The text has this:
51Z2 contains a carboxy-terminal PDZ-BM and the full-length protein causes the degradation of hDlg in vitro [32].

Series [4] deals with T2, second PDZ domain of human Dlg (hDlg/hDlg1/SAP-97) (human, UniProt Q12959 318-406, 15N labelled in the titrations with the peptides).
T2 chain: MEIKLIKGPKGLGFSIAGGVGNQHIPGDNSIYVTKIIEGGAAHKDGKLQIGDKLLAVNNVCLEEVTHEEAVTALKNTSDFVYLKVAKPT
As to the kind of experiment: SPR; kinetic analysis.

Series [5] concerns the target T3, second PDZ domain of human Dlg (hDlg/hDlg1/SAP-97) (human, UniProt Q12959 318-406, 15N labelled in the titrations with the peptides).
T3 construct: also called hDlgPDZ2; PDZ domain 2 of hDlg; source: bacterial expression, FPLC purification
As to the kind of experiment: SPR; peptides injected in triplicate at 3.125, 6.25, 12.5, 25, 50, 100 and 200 µM; kinetic analysis (1:1 interaction model with a mass transport term) and steady state analysis. Particulars: both partners purified.

The target in series [6] is T3, second PDZ domain of human Dlg …. As to the kind of experiment: NMR titration; [1H,15N]-HSQC of 100 µM 15N labeled 51Z2 without or with 3 fold excess of unlabeled hDlgPDZ2; slow exchange on the NMR time scale. As to conditions: both partners purified.
The mark [7] stands for this setting: kinetic analysis, 1:1 interaction model including mass transport term, 25 °C, pH 7.4.
The mark [8] stands for this setting: kinetic analysis, 1:1 interaction model including mass transport term, Biacore 2000, 25 °C, His6-tagged hDlgPDZ2 on NTA chip, peptide 3.125-200 µM, 150 mM NaCl, 10 mM HEPES, 3 mM EDTA, 0.005% polysorbate 20, pH 7.4, injected in triplicate, read-out: KD (kinetic analysis).

Turning to `CC(=O)N[C@@H](CCCNC(=N)N)C(=O)N[C@@H](CC(N)=O)C(=O)N[C@@H](CCC(=O)O)C(=O)N[C@H](C(=O)N[C@@H](CCC(N)=O)C(=O)N[C@H](C(=O)O)C(C)C)[C@@H](C)O` [E6CT6, Ac-RNETQV] (Ac-RNETQV-OH), at hDlgPDZ2 [1] (setting [7]), the kon is 54000 M⁻¹ s⁻¹. Moreover, the Kd on hDlgPDZ2 [1] (setting [8]) came to 28.42 ± 0.05 µM. In the case of “18 E6FL: full-length HPV 18 E6, His6-tagged”, the “solubility of recombinant E6 construct” value in series [2] was “Insoluble”. As to “HPV 18 E6: E6 oncoprotein of high-risk HPV 18”, the “E6 dependent reduction of hDlg levels” value with hDlg was “reduction of hDlg levels”. For the same molecule, the “interaction with hDlgPDZ2” value in the series with hDlgPDZ2 [3] is listed as “interact with hDlgPDZ2”.

On to `CC(=O)N[C@@H](CCC(N)=O)C(=O)N[C@@H](CCCNC(=N)N)C(=O)N[C@H](C(=O)N[C@@H](CCCNC(=N)N)C(=O)N[C@@H](CCC(N)=O)C(=O)N[C@@H](CCCNC(=N)N)C(=O)N[C@@H](CC(N)=O)C(=O)N[C@@H](CCC(=O)O)C(=O)N[C@H](C(=O)N[C@@H](CCC(N)=O)C(=O)N[C@H](C(=O)O)C(C)C)[C@@H](C)O)[C@@H](C)O` [E6CT11, Ac-QRTRQRNETQV] (Ac-QRTRQRNETQV-OH), for which the Kd on hDlgPDZ2 [1] (SPR, 25 °C, pH 7.4, read-out: Kd) was below 10 µM; on hDlgPDZ2 [1] (setting [8]) it was 9.79 ± 0.03 µM; at hDlgPDZ2 [1] (steady state analysis utilizing signals of plateaus, Biacore 2000, 25 °C, His6-tagged hDlgPDZ2 on NTA chip, peptide 3.125-200 µM, 150 mM NaCl, 10 mM HEPES, 3 mM EDTA, 0.005% polysorbate 20, pH 7.4, injected in triplicate, read-out: KD (steady state analysis)) it was 9.63 ± 0.02 µM. Moreover, on hDlgPDZ2 [1] (setting [7]), the kon worked out at 104000 M⁻¹ s⁻¹.

B1: E6CT11, 11mer peptide representing the complete disordered C-terminus of HPV 51 E6 (Ac-QRTRQRNETQV) (peptide)
peptide: Ac-QRTRQRNETQV
notes: HPV 51 E6 residues 141 to 151; also called E6CT11 peptide
For the molecule B1, the koff in series [4] came to 1.01 s⁻¹. Further, in series [5], the Kd stood at 9.6 µM and the “fold change of the association rate against E6CT6” value was around 2 fold.

B2: 31 (co) E6FL: full-length HPV 31 E6, His6-tagged (protein, UniProt P17386 1-149, looked up)
chain: MFKNPAERPRKLHELSSALEIPYDELRLNCVYCKGQLTETEVLDFAFTDLTIVYRDDTPHGVCTKCLRFYSKVSEFRWYRYSVYGTTLEKLTNKGICDLLIRCITCQRPLCPEEKQRHLDKKKRFHNIGGRWTGRCIACWRRPRTETQV
modifications: full-length His6 tag
notes: full-length HPV 31 E6, His6-tagged
Consider B2, for which, in series [2], the “solubility of recombinant E6 construct” value is “Insoluble”. Ac-RNETQV (also called E6CT6 peptide) [E6CT6, N-terminally truncated 6mer peptide of the HPV 51 E6 C-terminus (Ac-RNETQV)]: the off-rate (koff) in series [4] worked out at 1.53 s⁻¹. Also, in series [5], the Kd amounted to 28.3 µM.

B3: 16 (co) E6FL: full-length HPV 16 E6, His6-tagged (protein, UniProt P03126 1-158, looked up)
chain: MHQKRTAMFQDPQERPRKLPQLCTELQTTIHDIILECVYCKQQLLRREVYDFAFRDLCIVYRDGNPYAVCDKCLKFYSKISEYRHYCYSLYGTTLEQQYNKPLCDLLIRCINCQKPLCPEEKQRHLDKKQRFHNIRGRWTGRCMSCCRSSRTRRETQL
modifications: full-length His6 tag
notes: full-length HPV 16 E6, His6-tagged
Take B3: in series [2], the “solubility of recombinant E6 construct” value was “Insoluble”.

B4: HPV 16 E6: E6 oncoprotein of high-risk HPV 16 (protein, UniProt P03126 1-158, looked up)
Protein E6: MHQKRTAMFQDPQERPRKLPQLCTELQTTIHDIILECVYCKQQLLRREVYDFAFRDLCIVYRDGNPYAVCDKCLKFYSKISEYRHYCYSLYGTTLEQQYNKPLCDLLIRCINCQKPLCPEEKQRHLDKKQRFHNIRGRWTGRCMSCCRSSRTRRETQL
For B4, the “E6 dependent reduction of hDlg levels” value in the series on hDlg was “reduction of hDlg levels”. Further, in the series with hDlgPDZ2 [3], the “interaction with hDlgPDZ2” value is given as “interact with hDlgPDZ2”.

B5: 45 E6FL: full-length HPV 45 E6, His6-tagged (protein, UniProt P21735 1-158, looked up)
chain: MARFDDPKQRPYKLPDLCTELNTSLQDVSIACVYCKATLERTEVYQFAFKDLCIVYRDCIAYAACHKCIDFYSRIRELRYYSNSVYGETLEKITNTELYNLLIRCLRCQKPLNPAEKRRHLKDKRRFHSIAGQYRGQCNTCCDQARQERLRRRRETQV
modifications: full-length His6 tag
notes: full-length HPV 45 E6, His6-tagged
As to B5, in series [2], the “solubility of recombinant E6 construct” value is on record as “Insoluble”.

B6: second (C-terminal) zinc-binding domain of HPV 51 E6 (domain or fragment)
chain: GSHMSRSVYGTTLEAITKKSLYDLSIRCHRCQRPLGPEEKQKLVDEKKRFHEIAGRWTGQCANCWQRTRQRNETQV
modifications: 15N labelled in the titration with hDlgPDZ2; binds one zinc ion
notes: source: E. coli BL21 (DE3), FPLC-purified
Regarding B6, the binding result in series [6] is “binds”.
